Results: patent US20250313631A1 (HUMMINGBIRD BIOSCIENCE PTE, published 2025)

T1: recombinant rat VISTA (His-tagged) (rat, UniProt A0ABK0L5H3 33-192)
T1 sequence: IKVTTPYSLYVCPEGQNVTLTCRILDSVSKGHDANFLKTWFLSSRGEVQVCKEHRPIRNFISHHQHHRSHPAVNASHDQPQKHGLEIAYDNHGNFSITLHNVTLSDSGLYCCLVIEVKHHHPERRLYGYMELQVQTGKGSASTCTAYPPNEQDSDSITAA

T2: rat VISTA expressed on cells (rat, UniProt A0ABK0L5H3 33-310)
T2 construct: whole, on cells; also called rat VISTA on HEK293T cells; VISTA on rat CD11b+ myeloid cells
T2 sequence: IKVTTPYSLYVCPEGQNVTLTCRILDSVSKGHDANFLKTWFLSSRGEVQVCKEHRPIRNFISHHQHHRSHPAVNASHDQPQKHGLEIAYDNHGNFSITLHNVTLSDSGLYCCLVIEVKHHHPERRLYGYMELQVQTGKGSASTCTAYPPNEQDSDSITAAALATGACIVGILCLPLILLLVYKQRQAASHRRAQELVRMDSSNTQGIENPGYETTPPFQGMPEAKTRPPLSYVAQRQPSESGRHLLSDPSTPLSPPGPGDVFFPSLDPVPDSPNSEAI

T3: mouse VISTA expressed on cells (mouse, UniProt Q9D659 33-308)
T3 construct: whole, on cells; also called murine VISTA on transfected cells; VISTA on mouse CD11b+ myeloid cells
T3 sequence (looked up): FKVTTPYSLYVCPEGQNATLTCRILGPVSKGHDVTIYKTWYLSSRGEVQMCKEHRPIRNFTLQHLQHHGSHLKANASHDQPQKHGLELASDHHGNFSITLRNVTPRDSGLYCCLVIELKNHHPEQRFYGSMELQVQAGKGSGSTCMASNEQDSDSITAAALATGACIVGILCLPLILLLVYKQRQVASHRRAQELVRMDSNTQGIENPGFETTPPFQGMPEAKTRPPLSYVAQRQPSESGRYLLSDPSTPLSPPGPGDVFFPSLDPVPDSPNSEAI

T4: recombinant mouse VISTA (His-tagged) (mouse, UniProt Q9D659 33-191)
T4 construct: also called murine VISTA; mVISTA
T4 sequence (looked up): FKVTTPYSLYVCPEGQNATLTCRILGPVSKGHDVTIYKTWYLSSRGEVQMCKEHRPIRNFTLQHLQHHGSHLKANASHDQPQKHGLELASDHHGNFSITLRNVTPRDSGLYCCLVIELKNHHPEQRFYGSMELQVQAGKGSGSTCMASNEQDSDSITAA


Legend:
[1] = target: T5, recombinant human VISTA (His-tagged) (human, UniProt Q9H7M9 33-194); experiment: ELISA on coated human VISTA, antibody diluted in buffer of pH 5.5
T5 construct: bought soluble protein (Sino Biological); also called hVISTA; human VISTA polypeptide

[2] = target: T5, recombinant human VISTA (His-tagged); experiment: antigen-binding ELISA; HMBD-002 in F9, day 30 at 40°C
[3] = target: T5, recombinant human VISTA (His-tagged); experiment: antigen-binding ELISA; HMBD-002 in F9, day 20 at 40°C
[4] = target: T5, recombinant human VISTA (His-tagged); experiment: antigen-binding ELISA; HMBD-002 10 mg/mL in F1, day 0
[5] = target: T5, recombinant human VISTA (His-tagged); experiment: antigen-binding ELISA; HMBD-002 in F4, day 10 at 40°C
[6] = target: T5, recombinant human VISTA (His-tagged); experiment: antigen-binding ELISA; reference standard run with the day 10 samples
[7] = target: T5, recombinant human VISTA (His-tagged); experiment: ELISA on coated human VISTA, antibody diluted in buffer of pH 7.5
[8] = target: T5, recombinant human VISTA (His-tagged); experiment: antigen-binding ELISA; HMBD-002 in F1, day 10 at 40°C
[9] = target: T5, recombinant human VISTA (His-tagged); experiment: antigen-binding ELISA; HMBD-002 in F7, day 20 at 40°C
[10] = target: T6, cynomolgus macaque VISTA expressed on cells (cynomolgus macaque, UniProt A0A7N9IB00 33-311); experiment: flow cytometry, HEK293T cells expressing the NHP VISTA ortholog
T6 construct: whole, on cells; also called NHP VISTA on HEK293T cells; VISTA on NHP CD11b+ myeloid cells

[11] = target: T1, recombinant rat VISTA (His-tagged); experiment: SPR (Biacore), VISTA-HIS captured, antibody as analyte, 1:1 model; SPR (Biacore), rat VISTA
[12] = target: T5, recombinant human VISTA (His-tagged); experiment: ELISA on coated human VISTA, antibody diluted in buffer of pH 7
[13] = target: T2, rat VISTA expressed on cells; experiment: flow cytometry, endogenous VISTA on CD11b+ myeloid cells of PBMCs
[14] = target: T3, mouse VISTA expressed on cells; experiment: as above
[15] = target: T7, human VISTA expressed on cells (human, UniProt Q9H7M9 33-311); experiment: as above
T7 construct: also called HEK293 VISTA O/E; HEK293T or HEK293-6E cells overexpressing human VISTA

human CTLA4 = human CTLA4 (human, UniProt P16410 36-162); experiment: ELISA, plate coated with human CTLA-4, antibody titrated
Sequence of human CTLA4 (P16410 36-162 limits assumed): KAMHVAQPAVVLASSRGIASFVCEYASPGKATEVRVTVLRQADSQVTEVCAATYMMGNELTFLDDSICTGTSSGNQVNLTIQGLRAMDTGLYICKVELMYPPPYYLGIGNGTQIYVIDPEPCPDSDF

[16] = target: T5, recombinant human VISTA (His-tagged); experiment: ELISA, plate coated with human VISTA
[17] = target: T4, recombinant mouse VISTA (His-tagged); experiment: BLI (Octet QK384): His-tagged murine VISTA on anti-Penta-HIS tips, V4 666.5 to 41.7 nM as analyte, global fit

Row | EC50 [1] [nM] | EC50 [2] [nM] | EC50 [3] [nM] | EC50 [4] [nM] | EC50 [5] [nM] | EC50 [6] [nM] | EC50 [7] [nM] | EC50 [8] [nM] | EC50 [9] [nM] | EC50 [10] [nM] | Kd [11] [nM] | EC50 [12] [nM] | EC50 [13] [nM] | EC50 [14] [nM] | EC50 [15] [nM] | binding result (human CTLA4) | EC50 (read off the curve) [16] [nM] | koff [17] [s⁻¹] | kon [17] [M⁻¹ s⁻¹] | Binder
1 | 0.0731 | 0.0237 | 0.0223 | 0.04 | 0.0325 | 0.0253 | 0.0287 | 0.0306 | 0.0206 | 2.57 | 0.382 | 0.0343 | 48.6 | 111 | 108 | no binding (tested: about 3e-8 M) | – | – | – | V4-C26 hIgG4 (antibody, human IgG4 (S228P)/kappa format; also called HMBD-002; HMBD-002-V4C26) heavy: not shown light: EIVLTQSPATLSLSPGERATLSCRASSSVGYIHWYQQKPGQAPRPIIYTTSNRATGIPARFSGSGSGTDNTLTISSLEPEDSAVYYCQQWSSYPPITFGGGTKLEVKRTVAAPSVFIFPPSDEQLKSGTASVVCLLNNFYPREAKVQWKVDNALQSGNSQESVTEQDSKDSTYSLSSTLTLSKADYEKHKVYACEVTHQGLSSPVTKSFNRGEC
2 | – | – | – | – | – | – | – | – | – | – | – | – | – | – | – | – | ~0.01 | 0.00445 | 39500 | anti-VISTA clone 4M2-C12 IgG1 (antibody, mouse variable regions on human IgG1/kappa constant regions; also called V4; V4pr) heavy: not shown light: DIVITQTPAILSTSPGEKVTMTCRASSSVGYIHWYQQKPGSSPKPWIYATSNLASGVPARFSGSGSGTSNSLTITRVEAEDAATYYCQQWSSYPPITFGGGTKLEVKRTVAAPSVFIFPPSDEQLKSGTASVVCLLNNFYPREAKVQWKVDNALQSGNSQESVTEQDSKDSTYSLSSTLTLSKADYEKHKVYACEVTHQGLSSPVTKSFNRGEC
